From patent US20070178531A1 (BIOCHECK, published 2007)

T1: Human Id2: Histidine (human, UniProt Q02363 1-134, limits assumed)
T1 construct: Fusion protein made in E. coli from vector pGW07; also called h-Id2: His; not shown: His tag
T1 sequence (looked up): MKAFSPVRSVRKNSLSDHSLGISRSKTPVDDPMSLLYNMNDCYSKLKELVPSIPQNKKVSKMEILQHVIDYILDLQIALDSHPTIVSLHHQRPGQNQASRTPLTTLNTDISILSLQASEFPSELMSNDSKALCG

T2: Mouse Id2: Histidine (mouse, UniProt P41136 1-134, limits assumed)
T2 construct: Fusion protein made in E. coli from vector pGW07; also called m-Id2: His; not shown: His tag
T2 sequence (looked up): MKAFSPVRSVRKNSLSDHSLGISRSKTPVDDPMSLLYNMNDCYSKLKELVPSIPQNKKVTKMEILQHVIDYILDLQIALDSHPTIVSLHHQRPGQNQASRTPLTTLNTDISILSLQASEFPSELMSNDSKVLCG

T3: Human Id1: Histidine (human, UniProt P41134 1-155, limits assumed)
T3 construct: Fusion protein made in E. coli from vector pGW07; also called h-Id1: his; not shown: His tag
T3 sequence (looked up): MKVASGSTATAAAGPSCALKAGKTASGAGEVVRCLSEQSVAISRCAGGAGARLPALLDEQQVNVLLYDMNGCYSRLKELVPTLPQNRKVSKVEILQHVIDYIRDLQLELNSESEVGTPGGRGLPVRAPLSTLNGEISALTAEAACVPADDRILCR

T4: Mouse Id1: Histidine (mouse, UniProt P20067-2 1-148, limits assumed)
T4 construct: Fusion protein made in E. coli from vector pGW07; also called m-Id1-His; not shown: His tag
T4 sequence (looked up): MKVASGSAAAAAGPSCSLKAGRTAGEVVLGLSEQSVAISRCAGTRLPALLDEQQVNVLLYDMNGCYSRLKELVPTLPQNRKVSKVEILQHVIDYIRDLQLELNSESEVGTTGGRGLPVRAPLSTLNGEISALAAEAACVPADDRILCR

T5: Human Id3: Histidine (human, UniProt Q02535 1-119 at identity 1.00))
T5 construct: Fusion protein made in E. coli from vector pGW07; also called h-Id3: His; Human Id3 (coated wells); not shown: His tag
T5 chain: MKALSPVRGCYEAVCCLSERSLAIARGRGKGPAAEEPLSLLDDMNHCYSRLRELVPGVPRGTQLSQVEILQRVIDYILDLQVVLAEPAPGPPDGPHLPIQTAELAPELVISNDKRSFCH

T6: Mouse Id3: Histidine (mouse, UniProt P41133 1-119)
T6 construct: Fusion protein made in E. coli from vector pGW07; also called m-Id3: His; Mouse Id3 (coated wells); not shown: His tag
T6 sequence: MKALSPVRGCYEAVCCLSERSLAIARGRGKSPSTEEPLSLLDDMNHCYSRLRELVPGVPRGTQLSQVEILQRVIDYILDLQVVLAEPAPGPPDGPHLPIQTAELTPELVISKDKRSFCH


Columns and labels:
[1] = molecular target: T7, glutathione S-transferase (GST) (UniProt P08515 1-218 = GST); experiment: ELISA, Ab 0.025 µg/ml
T7 construct: also called carrier protein GST

Human Id2: Histidine [2] = molecular target: T1, Human Id2: Histidine; experiment: ELISA, Ab 0.050 µg/ml
Experimental: (§1) The rabbit monoclonal anti-human Id3 (clone #3-3) and the rabbit monoclonal anti-mouse/human Id3 (clones #6-1, 16-1, 17-3, and 42-1) produced in Example 6 were tested reactivity against the following antigens: mouse Id1:His, human Id1:His, mouse Id2:His, human Id2:His, mouse Id3:His, human Id3:His, mouse Id4:His, human Id4:His and GST.
(§2) 1. Microtiter wells (prepared in accordance with Example 6) were coated (0.1 μg/well) with mouse Id1:His, human Id1:His, human Id2:His, human Id3:His, and 1.0 μg/well with GST. [0155] 2. Antibody Diluent: 0.25% (w/v) BSA in 0.015M KPO₄ Buffer, 0.85% (w/v) NaCl, 0.1% (w/v) NaN₃, pH=7.40 [0156] 3. Rabbit monoclonal anti-human Id3 (clone #3-3) prepared in Example 7 was diluted to […] with the antibody diluent. […] 4. Rabbit monoclonal anti-mouse/human Id3 (clones #6-1, 16-1, 17-3, 42-1) prepared in Example 7 was diluted to 0.005, 0.010, 0.025, 0.05, 0.10, 0.25, and 0.50 μg/ml with the antibody diluent. […] 5. Conjugate Diluent: 50% (v/v) which consists of an aqueous solution containing Fetal Bovine Serum in 0.05 M Tris, 1% (v/v) Proclin-300, pH 7.6. [0159] 6. Conjugate: Goat anti-rabbit IgG (H+L)-HRP conjugate. [0160] 7. TMB reagent. […] 8. Stop solution (1 N HCI). Method
(§3) 1. Dispense 100 μL of antibody diluent, diluted rabbit monoclonal human Id3, and mouse/human Id3 hybridoma supernatants into appropriate wells. […] 2. Incubate at room temperature with mechanical shaking at 750 rpm for 90 minutes. [0165] 3. Remove the incubation mixture by flicking plate content into an appropriate waste container followed by rinsing the wells 5 times with distilled water. [0166] 4. Strike the wells sharply onto absorbent paper or paper towels to remove all residual water droplets. [0167] 5. Dispense 100 μL of 1:50,000 Goat Anti-Rabbit IgG-HRP Conjugate Reagent into each well. Gently mix for 5 seconds. [0168] 6. Incubate at room temperature with mechanical shaking at 750 rpm for 90 minutes. [0169] 7. Repeat procedures 3 and 4. [0170] 8. Dispense 100 μL of TMB Reagent into each well. Gently mix for 5 seconds. [0171] 9. Incubate at room temperature with mechanical shaking at 750 rpm for 20 minutes. […] 10.

Mouse Id2: Histidine = molecular target: T2, Mouse Id2: Histidine; experiment: ELISA, Ab 0.050 µg/ml
Experimental: as §1, §2, §3

Human Id1: Histidine = molecular target: T3, Human Id1: Histidine; experiment: ELISA, Ab 0.050 µg/ml
Experimental: as §1, §2, §3

Mouse Id1: Histidine = molecular target: T4, Mouse Id1: Histidine; experiment: ELISA, Ab 0.050 µg/ml
Experimental: as §1, §2, §3

[3] = molecular target: T7, glutathione S-transferase (GST); experiment: ELISA, Ab 0.010 µg/ml
Human Id2: Histidine [4] = molecular target: T1, Human Id2: Histidine; experiment: ELISA, Ab 0.100 µg/ml
Experimental: as §1, §2, §3

[5] = molecular target: T7, glutathione S-transferase (GST); experiment: ELISA, Ab 0.100 µg/ml
Experimental: as §1, §2, §3

Human Id3: Histidine [6] = molecular target: T5, Human Id3: Histidine; experiment: ELISA, Ab 0.050 µg/ml
Experimental: as §1, §2, §3

Mouse Id3: Histidine = molecular target: T6, Mouse Id3: Histidine; experiment: ELISA, Ab 0.050 µg/ml
Experimental: as §1, §2, §3

Human Id3: Histidine [7] = molecular target: T5, Human Id3: Histidine; experiment: ELISA, Ab 0.100 µg/ml
Experimental: as §1, §2, §3

T7 sequence (P08515 whole entry): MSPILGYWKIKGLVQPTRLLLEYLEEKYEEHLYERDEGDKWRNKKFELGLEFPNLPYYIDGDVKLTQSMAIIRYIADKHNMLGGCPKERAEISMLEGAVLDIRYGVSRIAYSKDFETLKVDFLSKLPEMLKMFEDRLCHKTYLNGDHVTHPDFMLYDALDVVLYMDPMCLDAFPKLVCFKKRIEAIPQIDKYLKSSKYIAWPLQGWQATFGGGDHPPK

Row | Binder | A450 [1] [A450] | A450 (Human Id2: Histidine [2]) [A450] | A450 (Mouse Id2: Histidine) [A450] | A450 (Human Id1: Histidine) [A450] | A450 (Mouse Id1: Histidine) [A450] | A450 [3] [A450] | A450 (Human Id2: Histidine [4]) [A450] | A450 [5] [A450] | A450 (Human Id3: Histidine [6]) [A450] | A450 (Mouse Id3: Histidine) [A450] | A450 (Human Id3: Histidine [7]) [A450]
1 | rabbit monoclonal anti-human Id3, clone #BCH-4/#3-3 (antibody, V domains shown, Rabbit IgG from a rabbit hybridoma; also called h Id3 MoAb 3-3) VH: QSVEESGGRLVTPGTPLTLTCTVSGIDLSSYAMSWVRQAPGKGLEWIGVIFPSNNVYYASWAKGRFTISKTSTTVDLKITSPTTEDTATYFCASMGAFDSWGPGTLVTVSS VL: QVLTQTPSPVSAAVGGTVTINCQASQSIYNDNDLAWFQQKPGQPPKLLIYDASTLTSGVPSRFKGSGSGTQFTLTISDLDCDDAATYYCAARYSGNIYGFGGGTEVVVK | 0.048 | 0.048 | 0.048 | 0.05 | 0.049 | 0.045 | 0.048 | 0.048 | – | – | –
2 | rabbit monoclonal anti-mouse/human Id3, clone #BCH-4/#16-1 (antibody, V domains shown, Rabbit IgG from a rabbit hybridoma; also called m/h Id3 MoAb 16-1) VH: QSVEESGGRLVTPGTPLTLTCTASGFSLSSYYIHWVRQAPGKALEWIGYISDGGTTYYASWAKGRFTISKTSSTTVDLKMTSLTTEDTATYFCARQGFNIWGPGTLVTVSL VL: AVLTQTPSPVSAAVGGTVTISCQSSQSVYNNNWLSWFQQKSGQPPKLLIYETSKLESGVPSRFKGSGSGTQFTLTIIDVQCDDAATYYCLGGYWTTSDNNIFGGGTEVVVK | 0.048 | 0.044 | 0.051 | 0.047 | 0.044 | 0.046 | 0.048 | 0.049 | 1.4 | 1.57 | 1.99
3 | rabbit monoclonal anti-mouse/human Id3, clone #BCH-4/#42-1 (antibody, V domains shown, Rabbit IgG from a rabbit hybridoma; also called m/h Id3 MoAb 42-1) VH: QSVEESGGRLVTPGTPLTLTCTASGFSLSSYYIHWVRQAPGKALEWIGYISDGGTTYYASWAKGRFTISKTSSTTVDLKMTSLTTEDTATYFCARQGFNIWGPGTLVTVSL VL: AVLTQTPSPVSAAVGGTVTISCQSSQSVYNNNWLSWFQQKSGQPPKLLIYETSKLESGVPSRFKGSGSGTQFTLTIIDVQCDDAATYYCLGGYWSTSDNNIFGGGTEVVVK | 0.045 | 0.047 | 0.051 | 0.045 | 0.05 | 0.045 | 0.046 | 0.049 | 2 | 2.23 | 2.6
4 | rabbit monoclonal anti-mouse/human Id3, clone #BCH-4/#6-1 (antibody, V domains shown, Rabbit IgG from a rabbit hybridoma; also called m/h Id3 MoAb 6-1) VH: QSVEESGGRLVTPGTPLTLTCTASGFSLSNVYIHWVRQAPGKGLEWIGYISDGDTARYATWAKGRFTISKTSSTTVNLKMTSLTTEDTATYFCARQGFNIWGPGTLVTVSL VL: AVLTQTPSPVSAAVGGTVSISCQSSQSVWNNNWLSWFQQKPGQPPKLLIYETSKLESGVPSRFKGSGSGTQFTLTISDVQCDDAATYYCLGGYWTTSDNNVFGGGTEVVVK | 0.049 | 0.046 | 0.051 | 0.052 | 0.046 | 0.046 | 0.049 | 0.047 | 1.61 | 1.75 | 2.36
5 | rabbit monoclonal anti-mouse/human Id3, clone #BCH-4/#17-3 (antibody, V domains shown, Rabbit IgG from a rabbit hybridoma; also called m/h Id3 MoAb 17-3; BCH-3/#17-3) VH: QSVEESGGRLVTPGTPLTLTCTASGFSLSNVYIHWVRQAPGKGLEWIGYISDGDTARYATWAKGRFTISKTSSTTVNLKMTSLTTEDTATYFCARQGFNIWGPGTLVTVSL VL: AVLTQTPSPVSAAVGGTVSISCQSSQSVWNNNWLSWFQQKPGQPPKLLIYETSKLESGVPSRFKGSGSGTQFTLTISDVQCDDAATYYCLGGYWTTSDNNVFGGGTEVVVK | 0.045 | 0.049 | 0.054 | 0.044 | 0.048 | 0.046 | 0.048 | 0.052 | 1.8 | 2.19 | 2.6
